# Measured values published in publication PMC6104738.
# Biological target: EBOV GP [change] (residues 1-636; strain Makona) (Zaire ebolavirus (EBOV), strain Makona)
# Test: negative-stain electron microscopy; purified EBOV GP ΔTM alone
substance,measurement,value
EBOV GP [change] (residues 1-636; strain Makona) (domain or fragment),stoichiometry N,3
